From PMC11840735

Target: USP14 (UniProt P54578)
Test: co-IP, immunoblot
Conditions: reference: ALKBH5 wild type; sites S64,S69

binding against the reference: weaker
Substance: ALKBH5 (from UniProt Q6P6C2) ALKBH5 S64A/S69A
